We go through two substances from US20120276098A1, “DRUG FUSIONS AND CONJUGATES WITH EXTENDED HALF LIFE” (priority 2009, published 2012).

Where two headings read alike, the source gives them in different places.

The target of series [1] is GLP1R (Homo sapiens, UniProt P43220). As to the kind of experiment: GLP-1 receptor binding assay (GLP-1R BA), CHO 6CRE GLP1R luciferase reporter cells. The class given is cell-based. The arrangement: expressed in transfected cells; host or cells: CHO K1 (CHO 6CRE GLP1R cells). Here is the method: Fusions were buffer exchanged into 100 mM […], 20 mM citrate pH 6.2. Meanwhile,CHO 6CRE GLP1R cells (CHO K1 cells (obtainable from the American Type Tissue Collection, ATCC) stably transfected with 6 cAMP response element driving a luciferase reporter gene and also with the human GLP-1 receptor) were seeded at 2×10^5cells/mL in suspension media. Suspension culture was maintained for 24 hours. Cells were then diluted into 15 mM HEPES buffer (obtainable from Sigma), containing 2 mM L glutamine (2.5×10^5 cells/ml) and dispensed into 384-well plates containing 10 ul/well of the compound to be assayed. After the addition of assay control, plates were returned to the incubator for 3 h at 37° C. and 5% CO2. […] Plates were placed in the reader (Viewlux, Perkin Elmer) and pre-incubated for 5 minutes prior to reading the […] and plotting of results. Compound was assayed at a range of concentrations in the presence and absence of 10 uM albumin, allowing a dose response curve to be fitted with and without the albumin.
Sequence of GLP1R (P43220 24-463): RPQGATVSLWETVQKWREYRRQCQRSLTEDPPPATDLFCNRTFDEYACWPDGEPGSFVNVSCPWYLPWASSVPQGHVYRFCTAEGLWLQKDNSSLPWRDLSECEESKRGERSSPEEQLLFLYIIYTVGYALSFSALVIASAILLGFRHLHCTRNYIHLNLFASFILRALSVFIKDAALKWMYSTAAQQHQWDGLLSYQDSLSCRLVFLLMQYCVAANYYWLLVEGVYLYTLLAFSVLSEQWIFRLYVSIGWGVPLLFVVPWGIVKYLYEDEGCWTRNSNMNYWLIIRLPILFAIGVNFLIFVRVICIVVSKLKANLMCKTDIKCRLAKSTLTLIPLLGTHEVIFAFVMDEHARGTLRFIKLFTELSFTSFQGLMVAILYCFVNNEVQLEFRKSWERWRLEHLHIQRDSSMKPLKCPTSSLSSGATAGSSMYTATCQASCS

Series [2] concerns the target Mouse serum albumin (MSA) (Mus musculus, UniProt P07724). The class given is binding. As for the experimental part: (§1) The analysis was performed using a CM5 Biacore chip (carboxymethylated dextran matrix) that was coated with serum albumin. About 1000 resonance units (RUs) of each serum albumin to be tested (human, rat and mouse serum albumin) was immobilised in acetate buffer pH 5.5. Flow cell 1 of the Biocore AB was an uncoated, blocked negative control, flow cell 2 was coated with Human serum albumin (HSA) (815 RUs) flow cell 3 was coated with Rat serum albumin (RSA)(826RUs) and flow cell 4 was coated with Mouse serum albumin (MSA) (938 RUs). Each fusion molecule tested was expressed in mammalian tissue culture as described in the example above.
(§2) A range of concentrations of the fusion molecule were prepared (in the range 16 nM to 2 μM) by dilution into BIACORE HBS-EP buffer (0.01 M HEPES, pH7.4, 0.15 M NaCl, 3 mM EDTA, 0.005% surfactant P20) and flowed across the BIACORE chip.
(§3) Affinity (KD) was calculated from the BIACORE traces by fitting on-rate and off-rate curves to traces generated by concentrations of dAb in the region of the KD.

Series [3] concerns the target Rat serum albumin (RSA) (Rattus norvegicus, UniProt P02770). The class given is binding. Here is the method: as §1, §2, §3
The target of series [4] is Human serum albumin (HSA) (Homo sapiens, UniProt P02768). The class given is binding. Here is the method: as §1, §2, §3
The mark [5] stands for this setting: read-out: GLP-1R BA (10 uM albumin) EC50 (pM) n = 2, presence of 10 uM albumin.
Where [6] appears, read: read-out: GLP-1R BA EC50 (pM) n = 3, absence of albumin.

Sequence of Rat serum albumin (RSA) (P02770 25-608): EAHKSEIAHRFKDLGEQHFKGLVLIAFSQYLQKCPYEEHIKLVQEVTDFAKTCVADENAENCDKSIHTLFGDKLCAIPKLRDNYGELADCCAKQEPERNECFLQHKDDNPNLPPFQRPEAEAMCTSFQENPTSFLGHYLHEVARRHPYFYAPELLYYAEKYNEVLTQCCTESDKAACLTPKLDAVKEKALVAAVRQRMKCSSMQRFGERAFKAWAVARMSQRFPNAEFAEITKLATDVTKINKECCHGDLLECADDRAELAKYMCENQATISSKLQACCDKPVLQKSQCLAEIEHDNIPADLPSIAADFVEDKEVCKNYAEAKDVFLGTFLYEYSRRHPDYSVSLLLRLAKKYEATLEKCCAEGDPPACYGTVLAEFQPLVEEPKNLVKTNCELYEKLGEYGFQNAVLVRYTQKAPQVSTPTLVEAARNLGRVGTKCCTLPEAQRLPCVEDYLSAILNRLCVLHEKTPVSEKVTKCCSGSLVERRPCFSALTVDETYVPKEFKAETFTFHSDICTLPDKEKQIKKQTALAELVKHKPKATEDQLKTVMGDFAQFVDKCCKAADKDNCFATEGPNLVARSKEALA
Sequence of Mouse serum albumin (MSA) (P07724 25-608): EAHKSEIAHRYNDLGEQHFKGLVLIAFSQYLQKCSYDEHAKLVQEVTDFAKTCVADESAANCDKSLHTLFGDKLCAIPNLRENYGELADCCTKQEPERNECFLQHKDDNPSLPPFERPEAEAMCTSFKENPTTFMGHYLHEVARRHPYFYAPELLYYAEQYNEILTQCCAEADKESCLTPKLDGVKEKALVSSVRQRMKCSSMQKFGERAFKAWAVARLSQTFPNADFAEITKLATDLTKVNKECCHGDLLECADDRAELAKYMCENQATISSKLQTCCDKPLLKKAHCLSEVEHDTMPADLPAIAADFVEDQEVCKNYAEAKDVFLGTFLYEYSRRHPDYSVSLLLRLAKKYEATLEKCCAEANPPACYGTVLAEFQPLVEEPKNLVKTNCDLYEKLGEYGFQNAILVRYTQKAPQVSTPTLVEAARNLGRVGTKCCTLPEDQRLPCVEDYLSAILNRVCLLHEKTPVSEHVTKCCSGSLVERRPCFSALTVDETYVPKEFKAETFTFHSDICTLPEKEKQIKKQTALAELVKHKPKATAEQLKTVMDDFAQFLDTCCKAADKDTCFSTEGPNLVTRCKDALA

One may read the EC50 as the midpoint of the concentration-response curve. Usually Kd stands for the equilibrium constant for the complex coming apart. Read a low Kd as tighter binding. As to “DAT 0117: Exendin 4, helical linker, DOM7h-14 fusion (Table 3), SEQ ID NO 4; Table 2 calls it 2xGLP-1 (7-37) A8G DOM7h-14 fusion”, the EC50 in series [1] (setting [5]) was 15 pM; in series [1] (setting [6]), 4 pM. Besides, the dissociation constant (Kd) in series [2] worked out at 130 nM; in series [3] it was 700 nM; in series [4], 150 nM.
With “DAT 0116: Exendin 4 DOM7h-14 fusion, SEQ ID NO 3”, the EC50 in series [1] (setting [5]) is 72 pM; in series [1] (setting [6]), 12 pM.
